Measurements as given in article PMC9151340.

T1: MtrA (UniProt F2R521 1-225)
T1 sequence: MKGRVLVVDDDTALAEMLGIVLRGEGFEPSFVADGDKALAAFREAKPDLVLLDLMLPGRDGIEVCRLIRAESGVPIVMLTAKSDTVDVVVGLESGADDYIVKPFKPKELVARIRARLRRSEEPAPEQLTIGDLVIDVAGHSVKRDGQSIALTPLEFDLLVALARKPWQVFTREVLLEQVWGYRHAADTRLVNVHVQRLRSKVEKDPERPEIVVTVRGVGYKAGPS

T2: GlnR (UniProt F2RFQ1 1-276)
T2 sequence: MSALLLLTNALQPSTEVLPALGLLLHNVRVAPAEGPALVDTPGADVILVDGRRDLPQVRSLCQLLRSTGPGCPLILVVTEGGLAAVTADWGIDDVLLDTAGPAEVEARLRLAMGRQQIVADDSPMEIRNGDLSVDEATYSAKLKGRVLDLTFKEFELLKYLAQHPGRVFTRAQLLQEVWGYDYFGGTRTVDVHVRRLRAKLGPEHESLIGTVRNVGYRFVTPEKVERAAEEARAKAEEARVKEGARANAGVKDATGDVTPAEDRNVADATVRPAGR


These binders were tested against T1, MtrA (assay: EMSA).

Binder | binding result
SVEN1860 WT (dsDNA) DNA 1: GTTTCATCAGTGTTTGACCACCGGGTCACGCCCTGGTAACACCAGTCTGTGAGCCTGGT DNA 2: ACCAGGCTCACAGACTGGTGTTACCAGGGCGTGACCCGGTGGTCAAACACTGATGAAAC | binds
nirB-WT (dsDNA) DNA 1: GGAGATCAGCGTTCCGTACGGGAAACAGTCGGGATGCCGCCGGGTAACACCGGCCGCGC DNA 2: GCGCGGCCGGTGTTACCCGGCGGCATCCCGACTGTTTCCCGTACGGAACGCTGATCTCC | binds
mtrA WT (SVEN2756 WT) (dsDNA) DNA 1: TACGGTGCAGGCCGACCACGGGGGCCCACGGGGGTGACATCCATGTCTGGCATCAACAC DNA 2: GTGTTGATGCCAGACATGGATGTCACCCCCGTGGGCCCCCGTGGTCGGCCTGCACCGTA | binds
mtrA M3 (SVEN2756 M3) (dsDNA) DNA 1: TACGGTGCAGGCCGACCACGGGGGCCCACGGGGAGGCTATCCATACTTGGCATCAACAC DNA 2: GTGTTGATGCCAAGTATGGATAGCCTCCCCGTGGGCCCCCGTGGTCGGCCTGCACCGTA | no binding
mtrA M2 (SVEN2756 M2) (dsDNA) DNA 1: TACGGTGCAGGCCGACCACGGGGGCCCACGGGGGTGACATCCATACTTGGCATCAACAC DNA 2: GTGTTGATGCCAAGTATGGATGTCACCCCCGTGGGCCCCCGTGGTCGGCCTGCACCGTA | no binding
mtrA M1 (SVEN2756 M1) (dsDNA) DNA 1: TACGGTGCAGGCCGACCACGGGGGCCCACGGGGAGGCTATCCATGTCTGGCATCAACAC DNA 2: GTGTTGATGCCAGACATGGATAGCCTCCCCGTGGGCCCCCGTGGTCGGCCTGCACCGTA | no binding

These binders were tested against T2, GlnR (assay: EMSA).

Binder | binding result
mtrA WT (SVEN2756 WT) (dsDNA) DNA 1: TACGGTGCAGGCCGACCACGGGGGCCCACGGGGGTGACATCCATGTCTGGCATCAACAC DNA 2: GTGTTGATGCCAGACATGGATGTCACCCCCGTGGGCCCCCGTGGTCGGCCTGCACCGTA | binds
